Data on six proteins can be found in PMC6451127.

Substrate in the data set: CNc1ncnc2c1ncn2[C@@H]1O[C@H](COP(=O)(O)O)[C@@H](O)[C@H]1O
The experiment in a line: purified protein. In kind it is biochemical, Arabidopsis thaliana. As to conditions: 20 mM potassium phosphate pH 7.2, 25 °C.

B1: AtMAPDA (Arabidopsis thaliana) (protein)
chain: MEWIQSLPKIELHAHLNGSIRDSTLLELARVLGEKGVIVFADVEHVIQKNDRSLVEVFKLFDLIHKLTTDHKTVTRITREVVEDFALENVVYLELRTTPKRSDSIGMSKRSYMEAVIQGLRSVSEVDIDFVTASDSQKLHNAGDGIGRKKIYVRLLLSIDRRETTESAMETVKLALEMRDVGVVGIDLSGNPLVGEWSTFLPALQYAKDNDLHITLHCGEVPNPKEIQAMLDFKPHRIGHACFFKDEDWTKLKSFRIPVEICLTSNIVTKSISSIDIHHFADLYNAKHPLILCTDDFGVFSTSLSNEYALAVRSLGLSKSETFALARAAIDATFAEDEVKQQLRFIFDSASPEHV
One may read the Km as the concentration of substrate that gives half-maximal velocity. Consider B1, for which the Km (250 nM enzyme) is 4.14 µM.

B2: AtMAPDA (Arabidopsis thaliana; K100A) (protein)
chain: MEWIQSLPKIELHAHLNGSIRDSTLLELARVLGEKGVIVFADVEHVIQKNDRSLVEVFKLFDLIHKLTTDHKTVTRITREVVEDFALENVVYLELRTTPARSDSIGMSKRSYMEAVIQGLRSVSEVDIDFVTASDSQKLHNAGDGIGRKKIYVRLLLSIDRRETTESAMETVKLALEMRDVGVVGIDLSGNPLVGEWSTFLPALQYAKDNDLHITLHCGEVPNPKEIQAMLDFKPHRIGHACFFKDEDWTKLKSFRIPVEICLTSNIVTKSISSIDIHHFADLYNAKHPLILCTDDFGVFSTSLSNEYALAVRSLGLSKSETFALARAAIDATFAEDEVKQQLRFIFDSASPEHV
As for B2, the Km was found to be 6.89 µM.

B3: AtMAPDA (Arabidopsis thaliana; H65A) (protein)
chain: MEWIQSLPKIELHAHLNGSIRDSTLLELARVLGEKGVIVFADVEHVIQKNDRSLVEVFKLFDLIAKLTTDHKTVTRITREVVEDFALENVVYLELRTTPKRSDSIGMSKRSYMEAVIQGLRSVSEVDIDFVTASDSQKLHNAGDGIGRKKIYVRLLLSIDRRETTESAMETVKLALEMRDVGVVGIDLSGNPLVGEWSTFLPALQYAKDNDLHITLHCGEVPNPKEIQAMLDFKPHRIGHACFFKDEDWTKLKSFRIPVEICLTSNIVTKSISSIDIHHFADLYNAKHPLILCTDDFGVFSTSLSNEYALAVRSLGLSKSETFALARAAIDATFAEDEVKQQLRFIFDSASPEHV
Consider B3, for which the Michaelis constant (Km) amounted to 5.51 µM.

B4: AtMAPDA (Arabidopsis thaliana; T97A) (protein)
chain: MEWIQSLPKIELHAHLNGSIRDSTLLELARVLGEKGVIVFADVEHVIQKNDRSLVEVFKLFDLIHKLTTDHKTVTRITREVVEDFALENVVYLELRATPKRSDSIGMSKRSYMEAVIQGLRSVSEVDIDFVTASDSQKLHNAGDGIGRKKIYVRLLLSIDRRETTESAMETVKLALEMRDVGVVGIDLSGNPLVGEWSTFLPALQYAKDNDLHITLHCGEVPNPKEIQAMLDFKPHRIGHACFFKDEDWTKLKSFRIPVEICLTSNIVTKSISSIDIHHFADLYNAKHPLILCTDDFGVFSTSLSNEYALAVRSLGLSKSETFALARAAIDATFAEDEVKQQLRFIFDSASPEHV
Consider B4, for which the Km turned out to be 8.94 µM.

B5: AtMAPDA (Arabidopsis thaliana; N17A) (protein)
chain: MEWIQSLPKIELHAHLAGSIRDSTLLELARVLGEKGVIVFADVEHVIQKNDRSLVEVFKLFDLIHKLTTDHKTVTRITREVVEDFALENVVYLELRTTPKRSDSIGMSKRSYMEAVIQGLRSVSEVDIDFVTASDSQKLHNAGDGIGRKKIYVRLLLSIDRRETTESAMETVKLALEMRDVGVVGIDLSGNPLVGEWSTFLPALQYAKDNDLHITLHCGEVPNPKEIQAMLDFKPHRIGHACFFKDEDWTKLKSFRIPVEICLTSNIVTKSISSIDIHHFADLYNAKHPLILCTDDFGVFSTSLSNEYALAVRSLGLSKSETFALARAAIDATFAEDEVKQQLRFIFDSASPEHV
Regarding B5, the Km amounted to 7.12 µM.

B6: AtMAPDA (Arabidopsis thaliana; T98A) (protein)
chain: MEWIQSLPKIELHAHLNGSIRDSTLLELARVLGEKGVIVFADVEHVIQKNDRSLVEVFKLFDLIHKLTTDHKTVTRITREVVEDFALENVVYLELRTAPKRSDSIGMSKRSYMEAVIQGLRSVSEVDIDFVTASDSQKLHNAGDGIGRKKIYVRLLLSIDRRETTESAMETVKLALEMRDVGVVGIDLSGNPLVGEWSTFLPALQYAKDNDLHITLHCGEVPNPKEIQAMLDFKPHRIGHACFFKDEDWTKLKSFRIPVEICLTSNIVTKSISSIDIHHFADLYNAKHPLILCTDDFGVFSTSLSNEYALAVRSLGLSKSETFALARAAIDATFAEDEVKQQLRFIFDSASPEHV
For B6, the Km was 4.52 µM.
